US20250154231A1
Where two headings read alike, the source gives them in different places.

Assays:
Assay in all cases: cell-based or functional assay
[1] = molecular target: SARS-CoV-2 spike (S) protein, Omicron BA.2.3.20 (SARS-CoV-2) (UniProt P0DTC2)
[2] = molecular target: SARS-CoV-2 spike (S) protein, Omicron BA.2 (SARS-CoV-2) (UniProt P0DTC2)
[3] = molecular target: SARS-CoV-2 spike (S) protein, Omicron BA.2.75 (SARS-CoV-2) (UniProt P0DTC2)
[4] = molecular target: SARS-CoV-2 spike (S) protein, Omicron BA.4/5 (SARS-CoV-2) (UniProt P0DTC2)
[5] = molecular target: SARS-CoV-2 spike (S) protein, Victoria strain (SARS-CoV-2) (UniProt P0DTC2)
[6] = molecular target: SARS-CoV-2 spike (S) protein, Omicron BJ.1 (SARS-CoV-2) (UniProt P0DTC2)
[7] = molecular target: SARS-CoV-2 spike (S) protein, Omicron BA.2.75.2 (SARS-CoV-2) (UniProt P0DTC2)
[8] = molecular target: SARS-CoV-2 spike (S) protein, Omicron BA.4.6 (SARS-CoV-2) (UniProt P0DTC2)
[9] = molecular target: SARS-CoV-2 spike (S) protein, Omicron BA.2 (SARS-CoV-2) (UniProt P0DTC2); remark: listed apart in the source
[10] = molecular target: SARS-CoV-2 spike (S) protein, Omicron BA.2.75 (SARS-CoV-2) (UniProt P0DTC2); remark: listed apart in the source
[11] = molecular target: SARS-CoV-2 spike (S) protein, Omicron BA.1.1 (SARS-CoV-2) (UniProt P0DTC2)
[12] = molecular target: SARS-CoV-2 Gamma spike (S) protein (SARS-CoV-2) (UniProt P0DTC2)
[13] = molecular target: SARS-CoV-2 Omicron BA.2 spike (S) protein (SARS-CoV-2) (UniProt P0DTC2)
[14] = molecular target: SARS-CoV-2 Victoria spike (S) protein (SARS-CoV-2) (UniProt P0DTC2)
[15] = molecular target: SARS-CoV-2 Alpha spike (S) protein (SARS-CoV-2) (UniProt P0DTC2)
[16] = molecular target: SARS-CoV-2 spike (S) protein, Omicron BA.1 (SARS-CoV-2) (UniProt P0DTC2)
[17] = molecular target: SARS-CoV-2 spike (S) protein, Omicron BA.2 (SARS-CoV-2) (UniProt P0DTC2); remark: listed apart in the source
[18] = molecular target: SARS-CoV-2 Delta spike (S) protein (SARS-CoV-2) (UniProt P0DTC2)
[19] = molecular target: SARS-CoV-2 Omicron BA.1 spike (S) protein of the live isolate (SARS-CoV-2) (UniProt P0DTC2)
[20] = molecular target: SARS-CoV-2 Beta spike (S) protein (SARS-CoV-2) (UniProt P0DTC2)
[21] = molecular target: SARS-CoV-2 spike (S) protein, Omicron BA.4/5 (SARS-CoV-2) (UniProt P0DTC2); remark: listed apart in the source
[22] = molecular target: SARS-CoV-2 spike (S) protein, Victoria strain (SARS-CoV-2) (UniProt P0DTC2); remark: listed apart in the source
[23] = molecular target: SARS-CoV-2 Omicron BA.1.1 spike (S) protein (SARS-CoV-2) (UniProt P0DTC2)
[24] = molecular target: SARS-CoV-2 spike (S) protein, Omicron BA.3 (SARS-CoV-2) (UniProt P0DTC2)
[25] = molecular target: SARS-CoV-2 spike (S) protein, Omicron BA.4.6 (SARS-CoV-2) (UniProt P0DTC2); remark: listed apart in the source
[26] = molecular target: SARS-CoV-2 spike (S) protein, Omicron BA.2 (SARS-CoV-2) (UniProt P0DTC2); remark: listed apart in the source
[27] = molecular target: SARS-CoV-2 spike (S) protein, Omicron BA.2.75 (SARS-CoV-2) (UniProt P0DTC2); remark: listed apart in the source
[28] = molecular target: SARS-CoV-2 Omicron BA.1 spike (S) protein, pseudovirus construct (SARS-CoV-2) (UniProt P0DTC2)
[29] = molecular target: SARS-CoV-2 Beta (B.1.351) spike (S) protein (SARS-CoV-2) (UniProt P0DTC2)
[30] = molecular target: SARS-CoV-2 Omicron BA.3 spike (S) protein (SARS-CoV-2) (UniProt P0DTC2)
[31] = molecular target: SARS-CoV-2 spike (S) protein, Omicron BA.2.75 (SARS-CoV-2) (UniProt P0DTC2); remark: listed apart in the source
[32] = molecular target: SARS-CoV-2 Omicron BA.1.1 spike (S) protein, pseudovirus construct (SARS-CoV-2) (UniProt P0DTC2)
[33] = molecular target: SARS-CoV-2 Omicron BA.1 spike (S) protein of the pseudovirus (SARS-CoV-2) (UniProt P0DTC2)
[34] = molecular target: SARS-CoV-2 Alpha (B.1.1.7) spike (S) protein (SARS-CoV-2) (UniProt P0DTC2)
[35] = molecular target: SARS-CoV-2 Omicron BA.4/5 spike (S) protein (SARS-CoV-2) (UniProt P0DTC2)
[36] = molecular target: SARS-CoV-2 Gamma (P.1) spike (S) protein (SARS-CoV-2) (UniProt P0DTC2)
[37] = molecular target: SARS-CoV-2 Omicron BA.2 spike (S) protein, pseudovirus construct (SARS-CoV-2) (UniProt P0DTC2)
[38] = molecular target: SARS-CoV-2 Omicron BA.3 spike (S) protein, pseudovirus construct (SARS-CoV-2) (UniProt P0DTC2)
[39] = molecular target: SARS-CoV-2 Omicron (BA.1) spike (S) protein, live virus isolate (SARS-CoV-2) (UniProt P0DTC2)

Omi-32 (antibody), sequence (VH): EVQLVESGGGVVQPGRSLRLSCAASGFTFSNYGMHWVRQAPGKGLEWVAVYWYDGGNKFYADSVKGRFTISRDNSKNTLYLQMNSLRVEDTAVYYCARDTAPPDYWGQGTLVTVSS
Omi-32 (antibody), sequence (VL): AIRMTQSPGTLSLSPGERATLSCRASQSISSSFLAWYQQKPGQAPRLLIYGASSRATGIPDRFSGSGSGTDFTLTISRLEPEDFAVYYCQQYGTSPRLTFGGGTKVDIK
AZD8895 (antibody), sequence (VH): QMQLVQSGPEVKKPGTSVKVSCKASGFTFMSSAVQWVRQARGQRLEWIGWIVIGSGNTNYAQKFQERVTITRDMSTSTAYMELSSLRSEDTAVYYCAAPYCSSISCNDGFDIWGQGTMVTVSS
AZD8895 (antibody), sequence (VL): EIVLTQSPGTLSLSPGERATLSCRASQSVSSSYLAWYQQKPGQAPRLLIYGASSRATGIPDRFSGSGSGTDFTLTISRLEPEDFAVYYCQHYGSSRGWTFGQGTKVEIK

## AZD8895 (antibody)
[1]
  IC50, pseudoviral neutralization: 0.007 µg/mL
[2]
  IC50, pseudoviral neutralization: 1.33 µg/mL
[3]
  IC50, pseudoviral neutralization: 0.008 µg/mL
[4]
  IC50, pseudoviral neutralization: > 10 µg/mL
[5]
  IC50, pseudoviral neutralization: 0.001 µg/mL
[6]
  IC50, pseudoviral neutralization: 0.114 µg/mL
[7]
  IC50, pseudoviral neutralization: > 10 µg/mL
[8]
  IC50, pseudoviral neutralization: > 10 µg/mL
[9]
  pseudovirus neutralisation IC50: 1.99 µg/mL
[10]
  pseudovirus neutralisation IC50: 0.008 µg/mL
[11]
  IC50, pseudoviral neutralization: 0.1 µg/mL
  pseudovirus neutralisation IC50: 0.1 µg/mL
[12]
  IC50, authentic virus neutralization: 0.046 µg/mL
[13]
  IC50, authentic virus neutralization: 7.7 µg/mL
[14]
  IC50, authentic virus neutralization: 0.005 µg/mL
[15]
  IC50, authentic virus neutralization: 0.011 µg/mL
[16]
  IC50, pseudoviral neutralization: 0.246 µg/mL
  pseudovirus neutralisation IC50: 0.246 µg/mL
[17]
  IC50, pseudoviral neutralization: 1.33 µg/mL
  pseudovirus neutralisation IC50: 1.33 µg/mL
[18]
  IC50, authentic virus neutralization: 0.003 µg/mL
[19]
  IC50, authentic virus neutralization: 1.15 µg/mL
[20]
  IC50, authentic virus neutralization: 0.046 µg/mL
[21]
  IC50, pseudoviral neutralization: > 10 µg/mL
  pseudovirus neutralisation IC50: > 10 µg/mL
[22]
  IC50, pseudoviral neutralization: 0.001 µg/mL
  pseudovirus neutralisation IC50: 0.001 µg/mL
[23]
  IC50, authentic virus neutralization: 6.08 µg/mL
[24]
  IC50, pseudoviral neutralization: > 10 µg/mL
  pseudovirus neutralisation IC50: > 10 µg/mL
[25]
  IC50, pseudoviral neutralization: > 10 µg/mL

## Omi-32 (antibody)
[26]
  pseudovirus neutralisation IC50: 2.61 µg/mL
[27]
  pseudovirus neutralisation IC50: 0.354 µg/mL
[1]
  IC50, pseudoviral neutralization: > 10 µg/mL
[2]
  IC50, pseudoviral neutralization: 2.68 µg/mL
[3]
  IC50, pseudoviral neutralization: 0.354 µg/mL
[4]
  IC50, pseudoviral neutralization: 0.035 µg/mL
[5]
  IC50, pseudoviral neutralization: 0.01 µg/mL
[6]
  IC50, pseudoviral neutralization: > 10 µg/mL
[7]
  IC50, pseudoviral neutralization: > 10 µg/mL
[8]
  IC50, pseudoviral neutralization: > 10 µg/mL
[28]
  Pseudovirus - IC50: 0.017 µg/mL
[11]
  pseudovirus neutralisation IC50: > 10 µg/mL
[12]
  IC50, authentic virus neutralization: 0.43 µg/mL
[13]
  IC50, authentic virus neutralization: 1.9 µg/mL
  IC50, pseudovirus neutralization: 2.68 µg/mL
[14]
  Authentic virus-IC50: 0.032 µg/mL
  IC50, authentic virus neutralization: 0.032 µg/mL
  IC50, pseudovirus neutralization: 0.01 µg/mL
  Pseudovirus - IC50: 0.01 µg/mL
[15]
  IC50, authentic virus neutralization: 0.102 µg/mL
[16]
  pseudovirus neutralisation IC50: 0.017 µg/mL
[17]
  pseudovirus neutralisation IC50: 2.68 µg/mL
[29]
  Authentic virus-IC50: 0.46 µg/mL
[30]
  IC50, pseudovirus neutralization: 1.02 µg/mL
[18]
  Authentic virus-IC50: 0.012 µg/mL
  IC50, authentic virus neutralization: 0.012 µg/mL
[31]
  pseudovirus neutralisation IC50: 0.354 µg/mL
[19]
  IC50, authentic virus neutralization: 0.024 µg/mL
[32]
  Pseudovirus - IC50: > 10 µg/mL
[33]
  IC50, pseudovirus neutralization: 0.017 µg/mL
[20]
  IC50, authentic virus neutralization: 0.46 µg/mL
[21]
  pseudovirus neutralisation IC50: 0.035 µg/mL
[22]
  pseudovirus neutralisation IC50: 0.01 µg/mL
[34]
  Authentic virus-IC50: 0.102 µg/mL
[23]
  IC50, authentic virus neutralization: 4.64 µg/mL
  IC50, pseudovirus neutralization: > 10 µg/mL
[35]
  IC50, pseudovirus neutralization: 0.035 µg/mL
[36]
  Authentic virus-IC50: 0.43 µg/mL
[37]
  Pseudovirus - IC50: 2.68 µg/mL
[38]
  Pseudovirus - IC50: 1.02 µg/mL
[39]
  Authentic virus-IC50: 0.024 µg/mL
[24]
  pseudovirus neutralisation IC50: 1.02 µg/mL
